Assay results reported in PMC6459870.

How the values were obtained:
[1] = molecular target: Xenopus laevis CENP-E-GFP construct (1–473 aa), truncated CENP-E motor (Xenopus laevis); test: fluorescence microscopy of microtubules on protein-coated beads (MT wall-to-end transition assay); GFP-tagged protein held on coverslip-immobilized 0.9 µm streptavidin beads via biotinylated anti-GFP antibody, one protein per bead; HiLyte647-labeled GMPCPP-stabilized MTs in solution; MTs added with 0.1 mM AMP-PNP, then imaging buffer with ATP; BRB80-based buffer; 32 °C; epifluorescence
[2] = molecular target: Human Broccoli Ndc80-GFP complex (human) (UniProt O14777)
[3] = molecular target: Human Broccoli Ndc80-GFP complex (human) (UniProt O14777); test: fluorescence microscopy of microtubules on protein-coated beads (dynamic MT end-coupling assay); beads coated with Ndc80-GFP only (no CENP-E) via anti-GFP antibody; GMPCPP-stabilized MT seeds, then unlabeled soluble tubulin (6 µM) with 1 mM Mg-GTP; 32 °C

Sequence of UniProt O14777 (O14777 whole entry, looked up, one chain of several): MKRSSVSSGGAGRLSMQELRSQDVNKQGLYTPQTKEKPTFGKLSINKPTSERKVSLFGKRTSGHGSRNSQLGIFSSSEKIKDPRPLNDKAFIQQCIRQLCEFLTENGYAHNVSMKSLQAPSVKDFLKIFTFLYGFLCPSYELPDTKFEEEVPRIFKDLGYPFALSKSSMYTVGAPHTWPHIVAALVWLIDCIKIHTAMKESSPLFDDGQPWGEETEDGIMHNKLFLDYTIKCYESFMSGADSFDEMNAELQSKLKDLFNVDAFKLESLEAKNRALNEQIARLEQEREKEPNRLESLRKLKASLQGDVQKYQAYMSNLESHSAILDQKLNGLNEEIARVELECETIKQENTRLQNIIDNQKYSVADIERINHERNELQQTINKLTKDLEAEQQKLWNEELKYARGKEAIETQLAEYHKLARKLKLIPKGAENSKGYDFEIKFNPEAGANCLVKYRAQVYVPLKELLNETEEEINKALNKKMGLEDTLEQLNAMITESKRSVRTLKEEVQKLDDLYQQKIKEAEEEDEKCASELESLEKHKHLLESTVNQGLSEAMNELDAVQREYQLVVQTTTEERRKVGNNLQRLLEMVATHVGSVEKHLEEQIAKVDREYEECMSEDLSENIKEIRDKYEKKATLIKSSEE

- MT end-retention time [1]: 1.1 min
- percent of MT plus-ends retained at the bead [1]: 24%
- MT end-retention time on beads coated with CENP-E motor and Ndc80 Broccoli (wall-to-end transition assay) [2]: 18.1 min
- percent of MT plus-ends retained on beads coated with CENP-E motor and Ndc80 Broccoli (wall-to-end transition assay) [2]: 80%
- percent of MT segments attached via their ends [3]: 3%
Substance: Microtubules polymerised from bovine brain tubulin (from UniProt Q6B856 1-445) (complex)
- Kaplan–Meier survival of MT end-attachments on beads coated with CENP-E motor and Ndc80 Broccoli [2]: > 28 min
